# Values quoted from earlier work, collected in publication PMC2726996.
# pKd: −log10 of the molar value.
# Columns and labels:
# [1] = target: EGFR (high-affinity sites) (Homo sapiens) (UniProt P00533)
# [2] = target: EGFR (low-affinity sites) (Homo sapiens) (UniProt P00533)
substance,measurement,setting,value
EGF (from UniProt P01133),pKd,[1],> 10.00
same,pKd,[2],8.00
